Assay results published in patent US20230399395A1 (SHANGHAI NOVAMAB BIOPHARMACEUTICALS, published 2023).

T1: mouse IL5 (mouse, UniProt P04401 21-133)
T1 sequence (looked up): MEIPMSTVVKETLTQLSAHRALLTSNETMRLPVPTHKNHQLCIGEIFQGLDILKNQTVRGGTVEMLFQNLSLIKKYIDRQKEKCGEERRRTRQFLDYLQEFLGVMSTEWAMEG

B1: Nb21 (VHH)
VHH: QVQLQESGGGSAQAGGSLKLSCVVSGYPYSGDYCMGWFRQAPGKEREGVAAFYTGGGSTYYADSVKGRFTTSQDNATSTFHLQMNSLKPEDTATYYCAADPWSVYGGSCGVKDPNPKAFNYWGQGTQVTVSS
notes: Camel nanobody, prokaryotic expression from the pMECS vector; also called Nb21-biotin
B2: Nb25 (VHH)
VHH: QVQLQESGGGSVQAGGSLRLSCAASEYTYSRYCMGWFRQVPGKEREGVATIDSDGSTSYADSVKGRFTISKDNAKNTLYLQMNSLKPEDTAMYYCAARYFYIATTGLRPCGEYEYNYWGQGTQVTVSS
notes: Camel nanobody, prokaryotic expression from the pMECS vector; It was detected with anti-HA antibody
B3: Nb92 (VHH)
VHH: QVQLQESGGGLVQPGGSLRLSCAASGFTFSNYYMSWVRQAPGKGLEWVSSISSDGSNTYYEDSVKGRFTISRDNANNTLYLQMNSLKSEDTALYHCATDLYDDSWYDHWGQGTQVTVSS
notes: as for B2
B4: bivalent biepitope IL5 nanobody HuNb66-HuNb21 expressed by yeast (VHH)
chain: EVQLQESGGGLVQPGGSLRLSCAASGYTVSSNMGWFRQAPGKEREGVAAIYPDGATYYADSVKGRFTISRDNSENTLYLQMNSLRAEDTAMYYCAADLAFNGLGTLALHGYWGQGTLVTVSSGGGGSGGGGSGGGGSGGGGSEVQLQESGGGLVQPGGSLRLSCAASGYPYSGDYCMGWFRQAPGKEREGVAAFYTGGGSTYYADSVKGRFTISRDNSKNTLYLQMNSLRAEDTAVYYCAADPWSVYGGSCGVKDPNPKAFNYWGQGTLVTVSS
notes: also called bivalent biepitopic antibody HuNb66-HuNb21
B5: Nb66 (VHH)
VHH: QVQLQESGGGSVQAGGSLRLSCAASGYTVSSNMGWFRQAPGKEREGVAAIYPDGATYYADSVKGRFTISQDNAENTVYLQMNSLKPEDTAMYYCAADLAFNGLGTLALHGYWGQGTQVTVSS
notes: as for B2

Tests used:
[1] = target: T2, human IL5 (human, UniProt P05113 20-134, biotinylated (IL5-biotin) in Examples 2, 5, 6, 9 and 11; site not stated); test: BLI (Fortebio Red96), 1:1 global fit
T2 construct: also called interleukin 5; IL5 antigen protein

[2] = target: T1, mouse IL5; test: ELISA, coated IL5, anti-HA detection
Procedure: After washing 5 times with PBST, 300 μL 1% BSA was added to each well for blocking at room temperature for 2 hours. […] Then the plate was washed for 5 times with PBST, 100 μL diluted mouse anti-HA antibody (1:2000 dilution) was added and incubated for 1 hour at 37° C. After washing 5 times with PBST, 100 μL diluted alkaline phosphatase modified anti-mouse antibody (1:2000 dilution) was added and incubated at 37° C. for 1 hour. Then the plate was washed with PBST for 5 times, developing solution was added, and the absorption value was measured at 405 nm wavelength by a microplate reader.

[3] = target: T2, human IL5; test: cell-based or functional assay
[4] = target: T2, human IL5; test: Flow cytometry, blocking of IL5-biotin binding to HEK293F cells expressing IL5R
Procedure: Specifically, The HEK293F stable cells with high expression of IL5R were centrifuged at 1000 rpm for 5 min, and the supernatant was discarded. The cells were washed once with 5 mL PBS and then resuspended with 2 mL PBS. After counting, the cells were divided into a 96-well plate with 3×10⁵ cells per well. […] After centrifugation at 4° C. at 3000 rpm, 200 μL PBS was added to each well, and then centrifuged at 3000 rpm and 4° C. for 4 min after resuspension. The diluted SA-PE antibody (diluted at 0.3:100) was added and incubated at 4° C. for 20 min. After centrifugation at 4° C. for 4 min at 3000 rpm, the supernatant was discarded, and 200 μL PBS was added to each well to wash the cells twice. Then 200 μL PBS was added to resuspend the cells, transfer to a flow tube, and the PE signal of each sample was detected by flow cytometry.

Row | Binder | Kd [1] [nM] | binding result [2] | IC50 of inhibition of the proliferation of TF-1 cells induced by IL5 (CCK8, OD450) [3] [nM] | IC50 [4] [µg/mL]
1 | B1 | < 1 | no binding | – | –
2 | B2 | < 1 | no binding | – | –
3 | B3 | < 1 | no binding | – | –
4 | B4 | – | – | 0.0512 | 0.841
5 | B5 | < 1 | no binding | – | –
